{"source": "patent US4753882A", "about": "“Urease and process for preparation thereof” (Sapporo Breweries Limited, priority 1986, dated 1988)", "substrate": "NC(N)=O", "test": "Km determination of urease by the GlDH method", "format": "biochemical, Bacillus sp. TB-90", "details": "other: GlDH method, 40 mM Tris-HCl buffer pH 8.0, 37° C.", "procedure": "A reaction solution consisting of 100 millimoles (mM) of urea, 40 mM of Tris-HCl buffer (pH 8.0), 0.86 mM of α-ketoglutaric acid, 0.31 mM of NADPH and 17.2 unit per milliliter (U/ml) of glutamate dehydrogenase (GlDH) was maintained at 37° C. Then an enzyme solution to be measured was added to the reaction solution to initiate the reaction, and a rate of decrease in absorbance at 37° C., E340 nm, was measured. All the concentrations are indicated in their final concentrations. A rate of decrease in NADPH was calculated from the rate of decrease in absorbance E340 nm, and the amount of ammonia formed by the action of urease was calculated from the rate of decrease in absorbance E340 nm.\nIn connection with enzyme activity, an amount of the enzyme forming 2 micromoles (μmole) of ammonia per minute was defined as one unit (1 U). This definition was calculated based on experiments carried out under the conditions described in the aforementioned GlDH method.\nThe Km value as determined under the conditions of the aforementioned GlDH method was about 0.3 mM for urea."}
{"protein": "urease (EC 3.5.1.5) from Bacillus sp. Strain TB-90 (FERM BP-795) (Bacillus sp. TB-90) (protein) MSFSMSRKQYADMFGPTVGDAIRLADSELFIEIEKDYTTYGDEVKFGGGKVIRDGMGQHPLATSDECVDLVLTNAIIVDYTGIYKADIGIKDGMIASIGKAGNPLLMDGVDMVIGAATEVIAAEGMIVTAGGIDAHIHFICPQQIETALASGVTTMIGGGTGPATGTNATTCTPGPWNIHRMLQAAEEFPINLGFLGKGNCSDEAPLKEQIEAGAVGLKLHEDWGSTAAAIDTCLKVADRYDVQVAIHTDTLNEGGFVEDTLKAIDGRVIHTYHTEGAGGGHAPDIIKAAGFPNILPSSTNPTRPYTINTLEEHLDMLMVCHHLDANIPEDIAFADSRIRKETIAAEDVLHDLGVFSMISSDSQAMGRVGEVIIRTWQTADKMKKQRGKLQEDNGVGDNFRVKRYIAKYTINPAIAHGIADYVGSVEVGKLADLVVWNPAFFGVKPELVLKGGMIAYSTMGDPNASIPTPQPVLYRPMFAAKGDAKYQTSITFVSKAAYEKGIHEQLGLKKKVKPVHGIRKLTKKDLILNDKTPKIDVDPQTYEVKVDGQLVTCEPAEIVPMAQRYFLF", "values": [{"measurement": "Km", "result": 300, "unit": "µM"}]}
